Laboratory results from patent US20230106715A1 (BIOSION, published 2023).
Where two headings read alike, the source gives them in different places.

T1: cynomolgus monkey Siglec15-his protein (cynomolgus monkey)
T1 construct: In house made; also called Cynomolgus Siglec15-his; cynomolgus Siglec15
T1 chain: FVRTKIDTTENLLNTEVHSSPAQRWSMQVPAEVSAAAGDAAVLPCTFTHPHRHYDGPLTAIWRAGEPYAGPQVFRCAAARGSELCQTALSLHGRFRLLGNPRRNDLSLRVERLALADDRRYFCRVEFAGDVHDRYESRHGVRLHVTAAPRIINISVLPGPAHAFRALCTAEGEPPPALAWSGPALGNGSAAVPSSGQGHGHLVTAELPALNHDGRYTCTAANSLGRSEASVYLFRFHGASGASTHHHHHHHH

T2: mouse Siglec15-his protein (mouse)
T2 construct: In house made
T2 chain: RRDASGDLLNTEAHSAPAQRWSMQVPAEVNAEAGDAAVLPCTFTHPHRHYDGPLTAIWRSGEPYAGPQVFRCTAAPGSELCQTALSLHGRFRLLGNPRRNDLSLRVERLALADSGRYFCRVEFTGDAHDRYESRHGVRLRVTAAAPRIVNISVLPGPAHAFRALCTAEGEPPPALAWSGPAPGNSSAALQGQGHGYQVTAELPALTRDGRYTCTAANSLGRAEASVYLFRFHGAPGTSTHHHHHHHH


How the values were obtained:
[1] = biological target: T3, human Siglec15-Fc protein (human); test: competitive ELISA: biotin-labeled human Siglec15-Fc in solution, competitor coated benchmark
T3 construct: In house made; also called recombinant human Siglec15 protein with human IgG1 Fc at the C-terminus
Method: The abilities of the anti-Siglec15 antibodies of the disclosure to block benchmark-human Siglec15 binding were measured in a competitive ELISA assay. Briefly, the benchmark was coated on 96-well micro plates at 2 μg/mL in PBS, 100 μl per well, and incubated for 2 hours at 37° C. Then plates were washed once with wash buffer, and blocked with 5% w/v non-fatty milk in PBST overnight at 4° C. The next day, the anti-Siglec15 antibodies of the disclosure or controls were diluted with biotin labeled human Siglec15-Fc protein (prepared in-house with SEQ ID NO: 19, 37 ng/ml in PBST with 2.5% w/v non-fatty milk), starting at 80 nM with a 4-fold serial dilution, and incubated at room temperature for 40 minutes. After plate washing 4 times, the antibody/Siglec15-Fc mixtures were added to benchmark coated plates, 100 μl per well. After incubation at 37° C. for 40 minutes, plates were washed 4 times again using wash buffer. Then the plates were added and incubated with 100 μl/well streptavidin conjugated HRP for 40 minutes at 37° C. Plates were washed again using wash buffer. Finally, TMB was added and the reaction was stopped using 1M H₂SO₄, and the absorbance of each well was read on a microplate reader using dual wavelength mode with 450 nm for TMB and 630 nm as the reference wavelength, then the OD (450-630) values were plotted against antibody concentration. Data was analyzed using Graphpad Prism software and IC₅₀ values were reported.
The mouse anti-Siglec15 antibodies of the disclosure were also tested in ligand blocking ELISA and benchmark blocking ELISA following the protocols described above.

[2] = biological target: T1, cynomolgus monkey Siglec15-his protein; test: indirect ELISA on coated cynomolgus Siglec15-his
Method: (§1) The anti-Siglec15 antibodies' cross-reactions to cynomolgus or mouse Siglec15 proteins were measured. Briefly, 96-well micro plates were coated with 100 μl of 2 μg/ml cynomolgus Siglec15-his protein (in house made with SEQ ID NO: 21), or 2 μg/ml mouse Siglec15-his protein (in house made with SEQ ID NO: 22) in carbonate/bicarbonate buffer (pH 9.6) for 2 hours at 37° C. ELISA plates were washed once with wash buffer (PBS+0.05% v/v Tween-20, PBST) and then blocked with 200 μl/well blocking buffer (5% w/v non-fatty milk in PBST) overnight at 4° C. Plates were washed 4 times and incubated with 100 μl serially diluted anti-Siglec15 antibodies of the disclosure or controls (starting at 66.7 nM, 5-fold serial dilution in PBST with 2.5% w/v non-fatty milk) for 40 minutes at 37° C. ELISA plates were washed 4 times again and incubated with Peroxidase AffiniPure Goat Anti-Human IgG, F(ab)₂ fragment specific (1:5000 dilution in PBST buffer, Jackson Immunoresearch, Cat #109-035-097, 100 μl/well) for 40 minutes at 37° C. After a final wash, plates were incubated with 100 μl/well TMB (Innoreagents, Cat #TMB-S-002). The reaction was stopped 4 minutes later at room temperature with 50 μl 1M H₂SO₄, and the absorbance of each well was read on a microplate reader using dual wavelength mode with 450 nm for TMB and 630 nm as the reference wavelength, then the OD (450-630) values were plotted against antibody concentration. Data was analyzed using Graphpad Prism software and EC₅₀ values were reported.

[3] = biological target: T2, mouse Siglec15-his protein; test: indirect ELISA on coated mouse Siglec15-his
Method: as §1

[4] = biological target: T1, cynomolgus monkey Siglec15-his protein; test: indirect ELISA on coated cynomolgus Siglec15-his
Method: as §1

T3 sequence (chain, as listed by the source limits assumed): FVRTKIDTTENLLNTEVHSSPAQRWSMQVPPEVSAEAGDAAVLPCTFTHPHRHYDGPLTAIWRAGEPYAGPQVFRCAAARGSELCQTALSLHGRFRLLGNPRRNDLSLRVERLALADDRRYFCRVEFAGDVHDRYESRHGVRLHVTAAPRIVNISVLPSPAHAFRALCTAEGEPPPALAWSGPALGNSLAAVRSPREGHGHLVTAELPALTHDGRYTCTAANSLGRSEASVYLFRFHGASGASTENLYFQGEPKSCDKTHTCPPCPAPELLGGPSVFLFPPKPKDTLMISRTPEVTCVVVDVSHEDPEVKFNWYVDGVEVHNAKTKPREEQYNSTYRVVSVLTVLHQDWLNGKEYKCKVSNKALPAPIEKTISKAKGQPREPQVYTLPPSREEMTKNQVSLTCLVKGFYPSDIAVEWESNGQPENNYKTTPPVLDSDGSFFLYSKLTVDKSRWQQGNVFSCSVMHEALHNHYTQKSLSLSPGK

IC50 [1] [nM]	EC50 [2] [nM]	EC50 [3] [nM]	EC50 [4] [nM]	Binder
0.0642	0.179			B2H2H1H7 (antibody, V domains shown, Mouse monoclonal antibody from hybridoma; also called mouse B2H2H1H7; B2H2H1A7) VH: QVQLQQSGAELVRPGTSVQMSCKAAGYTFTNYWIGWVKQRPGHGLEWVGDIHPGINYTNNNEKFRGKATLTADTSSSTAYMQLRGLTSDDSAIYYCARVDYDYDGSYIMDYWGQGTSVTVSS VL: QIILSQSPALLSASPGEKVTMTCRASSSVSYMYWYQQKPGSSPKPWIYATSNLTSGVPARFSGSGSGTSYSLTISRVEAEDAATYFCQQWNSKPWTFGGGSRLEIR
0.447	0.201	0.276	0.313	anti-Siglec15 benchmark (ch5G12) (antibody, human IgG1, kappa, V domains shown, ch5G12 (US 20190202912A1); also called BM; Siglec15-ch5G9) VH: QVQLQQPGAELVKPGASVKMSCKASGYTFTSYWITWVIQRPGQGLEWIGDIYCGSDTMHYNEKFKNKATLTVDTSSSTAYMQLSSLTSEDSAVYYCARWWDYGSSYDYFDYWGQGTTLTVSS VL: DIKMTQSPSSMYASLGERVTITCKASQDINSYLSWFQQKPGKSPKTLIYRANRLVDGVPSRFSGSGSGQDYSLTISSLEYEDMGIYYCLQYDEFPYTFGGGTKLEIKR

Further lines, the binder ahead of its results:

Binder	IC50 [1] [nM]	EC50 [2] [nM]	EC50 [3] [nM]	EC50 [4] [nM]
B2D7H7A3C1 (antibody, V domains shown, Mouse monoclonal antibody from hybridoma; also called mouse B2D7H7A3C1) VH: QVQLQQSGAELVRPGTSVQMSCKAAGYTFTNYWIGWVKQRPGHGLEWVGDIHPGINYTNNNEKFRGKATLTADTSSNTAYMQLRGLTSDDSAIYYCARVDYDYDGSYIMDYWGQGTSVTVSS VL: QIVLSQSPALLSASPGEKVTMTCRASSSVSYMYWYQQKPGSSPKPWIYATSNLTSGVPARFSGSGSGTSYSLTISRVEAEDAATYFCQQWNSKPWTFGGGSKLEIR	0.081	0.197		
B2G12H3E8 (antibody, V domains shown, Mouse monoclonal antibody from hybridoma; also called mouse B2G12H3E8) VH: QVQLKQSGAELVRPGTSVQMSCKAVGYTFTNYWIGWVKQRPGHGLEWVGDIHPGINYTNNNEKFRGKATLTADTSSSTAYMQLRGLTSDDSAIYYCARVDYDYDGSYIMDYWGQGTSVTVSS VL: QIVLSQSPALLSASPGEKVTMTCRASSSVSYMYWYQQKPGSSPKPWIYATSNLTSGVPARFSGSGSGTSYSLTISRVEAEDAATYFCQQWNSKPWTFGGGSKLEIR	0.063	0.146		
A2A5C7E8 (antibody, V domains shown, Fully human antibody from transgenic mouse hybridoma; also called A2A5C7E8-1) VH: EVQLVQSGAEVKKPGESLRISCKGSGYSFTTYWISWVRQMPGKGLEWMGLIDPSDSYTNYSPSFQGHVTISTDKSISTAYLQWSSLKASDTAMYYCARGGYYGSEEDYWGQGTLVTVSS VL: EIVLTQSPGTLSLSPGERATLSCRASQSVSSSRLAWFQQKSGQAPRLLIFDASSRATGIPDRFSGSGSGTDFTLTISRLEPEDFAVYYCQQYGSSPRTFGQGTKVEFK			0.139	0.136
A2A5C7E8-2 (antibody, human IgG1, kappa, V domains shown, Variant of A2A5C7E8 modified in VH CDR2 (X1 = E)) VH: EVQLVQSGAEVKKPGESLRISCKGSGYSFTTYWISWVRQMPGKGLEWMGLIDPSESYTNYSPSFQGHVTISTDKSISTAYLQWSSLKASDTAMYYCARGGYYGSEEDYWGQGTLVTVSS VL: EIVLTQSPGTLSLSPGERATLSCRASQSVSSSRLAWFQQKSGQAPRLLIFDASSRATGIPDRFSGSGSGTDFTLTISRLEPEDFAVYYCQQYGSSPRTFGQGTKVEFKR			0.151	0.15
A2A5C7E8-3 (antibody, human IgG1, kappa, V domains shown, Variant of A2A5C7E8 modified in VH CDR2 (X2 = K)) VH: EVQLVQSGAEVKKPGESLRISCKGSGYSFTTYWISWVRQMPGKGLEWMGLIDPSDSYTNYSPSFKGHVTISTDKSISTAYLQWSSLKASDTAMYYCARGGYYGSEEDYWGQGTLVTVSS VL: EIVLTQSPGTLSLSPGERATLSCRASQSVSSSRLAWFQQKSGQAPRLLIFDASSRATGIPDRFSGSGSGTDFTLTISRLEPEDFAVYYCQQYGSSPRTFGQGTKVEFKR			0.159	0.146
